In patent US20180155451A1 (published 2018):

B1: GpH7-B3 variant E333_13S/GpL16-k0 (Ho Ab) (antibody, human IgG1, kappa)
heavy: not shown
light: DIVMTQSPLSLPVTPGEPASISCQASESLVHSNRNTYLHWYLQKPGQSPQLLIYKVSNRFSGVPDRFSGSGSGTDFTLKISRVEAEDVGVYYCSQNTHVPPTFGQGTKVEIERTVAAPSVFIFPPSDEQLKSGTASVVCLLNNFYPREAKVQWKVDNALQSGNSQESVTEQDSKDSTYSLSSTLTLSKADYEKHKVYACEVTHQGLSSPVTKSFNRGEC
notes: Ho Ab: alteration in both H chains
B2: GpH7-A5/GpH7-B3 variant P271_02A/GpL16-k0 (He Ab) (antibody, human IgG1, kappa)
heavy 1: not shown
heavy 2: not shown
light: B1 light
notes: He Ab: alteration only in the GpH7-B3 chain
B3: GpH7-B3 variant S267_09D/GpL16-k0 (Ho Ab) (antibody, human IgG1, kappa)
heavy: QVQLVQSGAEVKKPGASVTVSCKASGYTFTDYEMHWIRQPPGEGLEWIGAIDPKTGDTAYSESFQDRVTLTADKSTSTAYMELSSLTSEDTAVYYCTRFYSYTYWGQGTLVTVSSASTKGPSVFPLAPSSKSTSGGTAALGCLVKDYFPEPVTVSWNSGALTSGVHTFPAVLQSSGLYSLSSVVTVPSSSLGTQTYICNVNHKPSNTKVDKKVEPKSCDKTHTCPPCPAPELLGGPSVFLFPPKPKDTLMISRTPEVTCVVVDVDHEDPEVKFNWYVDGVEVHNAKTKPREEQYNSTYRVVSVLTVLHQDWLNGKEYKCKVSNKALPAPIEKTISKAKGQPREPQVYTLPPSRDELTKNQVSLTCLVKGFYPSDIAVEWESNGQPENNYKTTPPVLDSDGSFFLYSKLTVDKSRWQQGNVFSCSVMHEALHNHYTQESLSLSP
light: B1 light
notes: as for B1
B4: GpH7-B3 variant K334_10E/GpL16-k0 (Ho Ab) (antibody, human IgG1, kappa)
heavy: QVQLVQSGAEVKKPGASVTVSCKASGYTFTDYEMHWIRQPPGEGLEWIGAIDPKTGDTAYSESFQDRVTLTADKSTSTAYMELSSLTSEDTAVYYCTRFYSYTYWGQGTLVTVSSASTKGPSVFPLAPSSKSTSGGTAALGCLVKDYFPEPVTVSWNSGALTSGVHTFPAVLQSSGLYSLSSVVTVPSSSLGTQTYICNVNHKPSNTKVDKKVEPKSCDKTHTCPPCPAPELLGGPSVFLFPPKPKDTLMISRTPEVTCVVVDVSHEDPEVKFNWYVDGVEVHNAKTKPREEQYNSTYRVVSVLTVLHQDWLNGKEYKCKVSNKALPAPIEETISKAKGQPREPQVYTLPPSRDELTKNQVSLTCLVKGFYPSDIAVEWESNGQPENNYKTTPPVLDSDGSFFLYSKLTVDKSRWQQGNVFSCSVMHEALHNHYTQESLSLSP
light: B1 light
notes: as for B1
B5: GpH7-B3 variant Q295_18N/GpL16-k0 (Ho Ab) (antibody, human IgG1, kappa)
heavy: not shown
light: B1 light
notes: as for B1
B6: GpH7-B3 variant Q295_13S/GpL16-k0 (Ho Ab) (antibody, human IgG1, kappa)
heavy: not shown
light: B1 light
notes: as for B1
B7: GpH7-B3 variant S298_15Y/GpL16-k0 (Ho Ab) (antibody, human IgG1, kappa)
heavy: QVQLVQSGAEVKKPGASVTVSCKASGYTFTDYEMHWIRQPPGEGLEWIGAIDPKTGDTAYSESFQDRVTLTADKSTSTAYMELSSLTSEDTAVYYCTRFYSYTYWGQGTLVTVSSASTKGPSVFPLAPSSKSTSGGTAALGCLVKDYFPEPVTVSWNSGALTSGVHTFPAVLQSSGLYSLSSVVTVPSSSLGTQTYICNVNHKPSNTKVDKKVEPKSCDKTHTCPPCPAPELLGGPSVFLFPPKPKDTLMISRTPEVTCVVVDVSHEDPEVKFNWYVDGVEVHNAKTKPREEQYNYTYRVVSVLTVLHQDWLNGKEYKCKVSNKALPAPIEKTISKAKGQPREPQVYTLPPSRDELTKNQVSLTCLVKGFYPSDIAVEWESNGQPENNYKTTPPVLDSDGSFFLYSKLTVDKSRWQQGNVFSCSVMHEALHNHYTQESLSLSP
light: B1 light
notes: as for B1
B8: GpH7-B3 variant S267_01G/GpL16-k0 (Ho Ab) (antibody, human IgG1, kappa)
heavy: not shown
light: B1 light
notes: as for B1
B9: GpH7-B3 variant I336_03V/GpL16-k0 (Ho Ab) (antibody, human IgG1, kappa)
heavy: not shown
light: B1 light
notes: as for B1
B10: GpH7-B3 variant Q295_03V/GpL16-k0 (Ho Ab) (antibody, human IgG1, kappa)
heavy: not shown
light: B1 light
notes: as for B1
B11: GpH7-B3 variant P271_03V/GpL16-k0 (Ho Ab) (antibody, human IgG1, kappa)
heavy: not shown
light: B1 light
notes: as for B1
B12: GpH7-B3 variant S298_08L/GpL16-k0 (Ho Ab) (antibody, human IgG1, kappa)
heavy: not shown
light: B1 light
notes: as for B1
B13: GpH7-B3 variant I336_01G/GpL16-k0 (Ho Ab) (antibody, human IgG1, kappa)
heavy: not shown
light: B1 light
notes: as for B1
B14: GpH7-B3 variant S324_20W/GpL16-k0 (Ho Ab) (antibody, human IgG1, kappa)
heavy: not shown
light: B1 light
notes: as for B1
B15: GpH7-B3 variant K326_15Y/GpL16-k0 (Ho Ab) (antibody, human IgG1, kappa)
heavy: not shown
light: B1 light
notes: as for B1
B16: GpH7-B3 variant P271_04F/GpL16-k0 (Ho Ab) (antibody, human IgG1, kappa)
heavy: not shown
light: B1 light
notes: as for B1
B17: GpH7-B3 variant G236_20W/GpL16-k0 (Ho Ab) (antibody, human IgG1, kappa)
heavy: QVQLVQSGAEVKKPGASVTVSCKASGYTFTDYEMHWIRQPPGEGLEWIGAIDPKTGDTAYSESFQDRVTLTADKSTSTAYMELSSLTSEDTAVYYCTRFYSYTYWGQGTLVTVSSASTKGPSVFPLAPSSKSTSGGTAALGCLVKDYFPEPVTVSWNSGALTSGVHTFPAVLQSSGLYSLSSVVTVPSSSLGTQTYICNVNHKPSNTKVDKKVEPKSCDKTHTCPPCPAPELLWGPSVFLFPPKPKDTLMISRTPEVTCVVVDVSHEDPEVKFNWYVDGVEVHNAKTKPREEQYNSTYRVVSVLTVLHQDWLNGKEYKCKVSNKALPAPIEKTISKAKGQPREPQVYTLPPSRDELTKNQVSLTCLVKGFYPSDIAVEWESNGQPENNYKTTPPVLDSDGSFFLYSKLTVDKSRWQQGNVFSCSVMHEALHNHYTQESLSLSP
light: B1 light
notes: as for B1
B18: GpH7-B3 variant S239_01G/GpL16-k0 (Ho Ab) (antibody, human IgG1, kappa)
heavy: not shown
light: B1 light
notes: as for B1
B19: GpH7-B3 variant S267_02A/GpL16-k0 (Ho Ab) (antibody, human IgG1, kappa)
heavy: not shown
light: B1 light
notes: as for B1
B20: GpH7-B3 variant I336_18N/GpL16-k0 (Ho Ab) (antibody, human IgG1, kappa)
heavy: not shown
light: B1 light
notes: as for B1
B21: GpH7-B3 variant I336_04F/GpL16-k0 (Ho Ab) (antibody, human IgG1, kappa)
heavy: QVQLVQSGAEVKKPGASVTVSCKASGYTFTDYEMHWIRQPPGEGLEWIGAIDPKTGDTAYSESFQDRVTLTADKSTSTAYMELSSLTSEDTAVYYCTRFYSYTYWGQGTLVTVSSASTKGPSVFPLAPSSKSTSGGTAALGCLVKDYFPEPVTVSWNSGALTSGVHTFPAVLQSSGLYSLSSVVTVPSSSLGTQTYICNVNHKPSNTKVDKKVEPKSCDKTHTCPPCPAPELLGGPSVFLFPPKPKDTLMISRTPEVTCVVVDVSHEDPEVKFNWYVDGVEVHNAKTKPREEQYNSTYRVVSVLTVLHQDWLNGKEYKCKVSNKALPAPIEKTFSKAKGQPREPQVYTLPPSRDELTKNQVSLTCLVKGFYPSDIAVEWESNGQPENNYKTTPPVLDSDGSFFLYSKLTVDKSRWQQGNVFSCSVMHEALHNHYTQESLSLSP
light: B1 light
notes: as for B1
B22: GpH7-B3 variant I336_06M/GpL16-k0 (Ho Ab) (antibody, human IgG1, kappa)
heavy: not shown
light: B1 light
notes: as for B1
B23: GpH7-B3 variant S298_10E/GpL16-k0 (Ho Ab) (antibody, human IgG1, kappa)
heavy: not shown
light: B1 light
notes: as for B1
B24: GpH7-B3 variant S298_14T/GpL16-k0 (Ho Ab) (antibody, human IgG1, kappa)
heavy: not shown
light: B1 light
notes: as for B1
B25: GpH7-B3 variant P271_13S/GpL16-k0 (Ho Ab) (antibody, human IgG1, kappa)
heavy: not shown
light: B1 light
notes: as for B1
B26: GpH7-B3 variant P271_06M/GpL16-k0 (Ho Ab) (antibody, human IgG1, kappa)
heavy: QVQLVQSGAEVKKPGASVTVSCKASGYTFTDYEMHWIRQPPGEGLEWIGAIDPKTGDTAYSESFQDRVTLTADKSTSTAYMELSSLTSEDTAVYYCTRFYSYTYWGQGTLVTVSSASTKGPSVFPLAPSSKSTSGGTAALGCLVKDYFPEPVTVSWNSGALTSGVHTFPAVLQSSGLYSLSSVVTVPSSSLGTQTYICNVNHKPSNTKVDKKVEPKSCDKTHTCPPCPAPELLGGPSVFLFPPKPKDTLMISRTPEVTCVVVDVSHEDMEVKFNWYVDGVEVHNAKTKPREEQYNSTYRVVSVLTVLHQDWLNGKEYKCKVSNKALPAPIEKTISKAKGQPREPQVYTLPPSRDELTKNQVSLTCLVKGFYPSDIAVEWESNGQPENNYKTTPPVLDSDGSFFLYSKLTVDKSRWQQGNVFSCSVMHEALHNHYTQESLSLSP
light: B1 light
notes: as for B1
B27: GpH7-B3 variant S337_03V/GpL16-k0 (Ho Ab) (antibody, human IgG1, kappa)
heavy: not shown
light: B1 light
notes: as for B1
B28: GpH7-B3 variant S298_03V/GpL16-k0 (Ho Ab) (antibody, human IgG1, kappa)
heavy: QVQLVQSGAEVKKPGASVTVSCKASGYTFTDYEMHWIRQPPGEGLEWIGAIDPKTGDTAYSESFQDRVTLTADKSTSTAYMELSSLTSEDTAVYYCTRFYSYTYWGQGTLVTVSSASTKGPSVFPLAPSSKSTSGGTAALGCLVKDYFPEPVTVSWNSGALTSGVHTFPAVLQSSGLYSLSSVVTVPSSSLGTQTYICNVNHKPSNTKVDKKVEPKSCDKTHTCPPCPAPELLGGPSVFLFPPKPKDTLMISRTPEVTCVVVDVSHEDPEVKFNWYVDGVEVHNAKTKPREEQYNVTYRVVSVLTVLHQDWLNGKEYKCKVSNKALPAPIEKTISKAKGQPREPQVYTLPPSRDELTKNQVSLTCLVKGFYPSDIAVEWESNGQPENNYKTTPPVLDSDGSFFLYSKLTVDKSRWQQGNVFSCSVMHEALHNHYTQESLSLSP
light: B1 light
notes: as for B1
B29: GpH7-B3 variant P271_12R/GpL16-k0 (Ho Ab) (antibody, human IgG1, kappa)
heavy: not shown
light: B1 light
notes: as for B1
B30: GpH7-B3 variant S337_02A/GpL16-k0 (Ho Ab) (antibody, human IgG1, kappa)
heavy: not shown
light: B1 light
notes: as for B1
B31: GpH7-B3 variant S298_07I/GpL16-k0 (Ho Ab) (antibody, human IgG1, kappa)
heavy: not shown
light: B1 light
notes: as for B1
B32: GpH7-B3 variant Q295_14T/GpL16-k0 (Ho Ab) (antibody, human IgG1, kappa)
heavy: not shown
light: B1 light
notes: as for B1
B33: GpH7-B3 variant S324_08L/GpL16-k0 (Ho Ab) (antibody, human IgG1, kappa)
heavy: not shown
light: B1 light
notes: as for B1
B34: GpH7-B3 variant S298_18N/GpL16-k0 (Ho Ab) (antibody, human IgG1, kappa)
heavy: not shown
light: B1 light
notes: as for B1
B35: GpH7-B3 variant S298_19Q/GpL16-k0 (Ho Ab) (antibody, human IgG1, kappa)
heavy: not shown
light: B1 light
notes: as for B1
B36: GpH7-B3 variant S267_03V/GpL16-k0 (Ho Ab) (antibody, human IgG1, kappa)
heavy: not shown
light: B1 light
notes: as for B1
B37: GpH7-A5/GpH7-B3 variant A327_09D/GpL16-k0 (He Ab) (antibody, human IgG1, kappa)
heavy 1: not shown
heavy 2: not shown
light: B1 light
notes: as for B2
B38: GpH7-B3 variant Q295_05P/GpL16-k0 (Ho Ab) (antibody, human IgG1, kappa)
heavy: not shown
light: B1 light
notes: as for B1
B39: GpH7-B3 variant I336_10E/GpL16-k0 (Ho Ab) (antibody, human IgG1, kappa)
heavy: not shown
light: B1 light
notes: as for B1
B40: GpH7-B3 variant S239_09D/GpL16-k0 (Ho Ab) (antibody, human IgG1, kappa)
heavy: not shown
light: B1 light
notes: Ho Ab: alteration in both H chains; also called GpH7-B3-06-09D/GpL16-k0
B41: GpH7-B3 variant Q295_04F/GpL16-k0 (Ho Ab) (antibody, human IgG1, kappa)
heavy: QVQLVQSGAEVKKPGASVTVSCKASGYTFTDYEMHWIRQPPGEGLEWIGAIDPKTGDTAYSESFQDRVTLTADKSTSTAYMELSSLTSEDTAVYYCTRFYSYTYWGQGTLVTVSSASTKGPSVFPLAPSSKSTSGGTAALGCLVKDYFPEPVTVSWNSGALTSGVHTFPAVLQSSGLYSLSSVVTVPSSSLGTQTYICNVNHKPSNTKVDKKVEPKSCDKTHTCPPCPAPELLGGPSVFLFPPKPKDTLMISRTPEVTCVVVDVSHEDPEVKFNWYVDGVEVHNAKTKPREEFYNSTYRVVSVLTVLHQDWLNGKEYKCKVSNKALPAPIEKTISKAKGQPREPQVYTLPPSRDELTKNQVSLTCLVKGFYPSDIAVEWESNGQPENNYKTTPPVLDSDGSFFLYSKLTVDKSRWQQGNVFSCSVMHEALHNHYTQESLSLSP
light: B1 light
notes: as for B1
B42: GpH7-B3 variant I336_02A/GpL16-k0 (Ho Ab) (antibody, human IgG1, kappa)
heavy: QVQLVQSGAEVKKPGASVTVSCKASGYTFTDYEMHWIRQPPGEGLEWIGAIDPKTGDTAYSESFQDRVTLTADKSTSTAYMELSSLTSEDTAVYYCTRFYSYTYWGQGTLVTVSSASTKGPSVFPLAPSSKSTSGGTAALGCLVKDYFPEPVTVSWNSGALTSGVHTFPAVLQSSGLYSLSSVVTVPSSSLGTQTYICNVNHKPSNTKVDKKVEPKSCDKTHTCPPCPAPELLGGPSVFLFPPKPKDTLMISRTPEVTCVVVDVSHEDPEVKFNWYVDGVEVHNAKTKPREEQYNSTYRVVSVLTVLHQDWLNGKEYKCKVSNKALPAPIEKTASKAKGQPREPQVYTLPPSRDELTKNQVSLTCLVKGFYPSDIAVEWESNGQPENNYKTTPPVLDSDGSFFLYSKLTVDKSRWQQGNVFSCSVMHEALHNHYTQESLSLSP
light: B1 light
notes: as for B1
B43: GpH7-B3 variant S337_01G/GpL16-k0 (Ho Ab) (antibody, human IgG1, kappa)
heavy: not shown
light: B1 light
notes: as for B1
B44: GpH7-B3 variant K326_16H/GpL16-k0 (Ho Ab) (antibody, human IgG1, kappa)
heavy: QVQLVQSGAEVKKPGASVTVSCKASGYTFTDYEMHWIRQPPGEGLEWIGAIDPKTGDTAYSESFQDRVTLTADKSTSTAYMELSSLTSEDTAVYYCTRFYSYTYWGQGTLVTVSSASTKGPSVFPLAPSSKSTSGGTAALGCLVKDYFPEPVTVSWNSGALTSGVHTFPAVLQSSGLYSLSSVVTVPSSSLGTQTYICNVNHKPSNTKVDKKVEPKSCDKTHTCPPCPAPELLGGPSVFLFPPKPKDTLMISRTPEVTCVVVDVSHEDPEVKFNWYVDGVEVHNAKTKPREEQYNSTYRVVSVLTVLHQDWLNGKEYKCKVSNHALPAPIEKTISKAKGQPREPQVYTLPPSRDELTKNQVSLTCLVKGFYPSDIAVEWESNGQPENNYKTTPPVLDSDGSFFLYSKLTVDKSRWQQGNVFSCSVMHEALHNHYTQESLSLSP
light: B1 light
notes: as for B1
B45: GpH7-B3 variant K326_14T/GpL16-k0 (Ho Ab) (antibody, human IgG1, kappa)
heavy: not shown
light: B1 light
notes: as for B1
B46: GpH7-B3 variant S324_03V/GpL16-k0 (Ho Ab) (antibody, human IgG1, kappa)
heavy: not shown
light: B1 light
notes: as for B1
B47: GpH7-B3 variant S324_02A/GpL16-k0 (Ho Ab) (antibody, human IgG1, kappa)
heavy: not shown
light: B1 light
notes: as for B1
B48: GpH7-B3 variant Q295_02A/GpL16-k0 (Ho Ab) (antibody, human IgG1, kappa)
heavy: not shown
light: B1 light
notes: as for B1
B49: GpH7-B3 variant S324_14T/GpL16-k0 (Ho Ab) (antibody, human IgG1, kappa)
heavy: not shown
light: B1 light
notes: as for B1
B50: GpH7-B3 variant P271_07I/GpL16-k0 (Ho Ab) (antibody, human IgG1, kappa)
heavy: not shown
light: B1 light
notes: as for B1
B51: GpH7-B3 variant S324_19Q/GpL16-k0 (Ho Ab) (antibody, human IgG1, kappa)
heavy: not shown
light: B1 light
notes: as for B1
B52: GpH7-B3 variant P271_20W/GpL16-k0 (Ho Ab) (antibody, human IgG1, kappa)
heavy: not shown
light: B1 light
notes: as for B1
B53: GpH7-B3 variant Q295_07I/GpL16-k0 (Ho Ab) (antibody, human IgG1, kappa)
heavy: not shown
light: B1 light
notes: as for B1
B54: GpH7-B3 variant P271_11K/GpL16-k0 (Ho Ab) (antibody, human IgG1, kappa)
heavy: not shown
light: B1 light
notes: as for B1
B55: GpH7-B3 variant S298_16H/GpL16-k0 (Ho Ab) (antibody, human IgG1, kappa)
heavy: not shown
light: B1 light
notes: as for B1

Legend:
[1] = molecular target: T1, FcγRIa extracellular domain with C-terminal His tag (human, UniProt P12314 16-292); test: SPR Biacore, antibody captured, FcγRIa analyte; vs GpH7-B3/GpL16-k0 = 100
T1 construct: extracellular domain; Expressed in FreeStyle293 cells; analyte in Biacore; also called FcgRI; FcgRIa
T1 sequence (P12314 16-292): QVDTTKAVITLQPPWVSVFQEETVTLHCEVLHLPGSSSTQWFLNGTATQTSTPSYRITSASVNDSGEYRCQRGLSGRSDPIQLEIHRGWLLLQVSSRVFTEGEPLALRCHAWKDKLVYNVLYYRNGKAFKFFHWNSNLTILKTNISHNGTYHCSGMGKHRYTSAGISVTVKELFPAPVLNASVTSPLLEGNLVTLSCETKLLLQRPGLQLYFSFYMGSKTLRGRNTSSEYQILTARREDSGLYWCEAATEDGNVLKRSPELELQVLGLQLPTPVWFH

[2] = molecular target: T1, FcγRIa extracellular domain with …; test: SPR Biacore, antibody captured, FcγRIa analyte; vs GpH7-A5/GpH7-B3/GpL16-k0 = 100

| Binder | Ho/Con_1a [1] | He/Con_1a [2] |
| --- | --- | --- |
| B1 | 101 relative (control = 100) |  |
| B2 |  | 104 relative (control = 100) |
| B3 | 106 relative (control = 100) |  |
| B4 | 107 relative (control = 100) |  |
| B5 | 101 relative (control = 100) |  |
| B6 | 101 relative (control = 100) |  |
| B7 | 103 relative (control = 100) |  |
| B8 | 102 relative (control = 100) |  |
| B9 | 105 relative (control = 100) |  |
| B10 | 102 relative (control = 100) |  |
| B11 | 102 relative (control = 100) |  |
| B12 | 104 relative (control = 100) |  |
| B13 | 104 relative (control = 100) |  |
| B14 | 112 relative (control = 100) |  |
| B15 | 101 relative (control = 100) |  |
| B16 | 100 relative (control = 100) |  |
| B17 | 104 relative (control = 100) |  |
| B18 | 101 relative (control = 100) |  |
| B19 | 108 relative (control = 100) |  |
| B20 | 104 relative (control = 100) |  |
| B21 | 104 relative (control = 100) |  |
| B22 | 104 relative (control = 100) |  |
| B23 | 106 relative (control = 100) |  |
| B24 | 106 relative (control = 100) |  |
| B25 | 101 relative (control = 100) |  |
| B26 | 102 relative (control = 100) |  |
| B27 | 105 relative (control = 100) |  |
| B28 | 106 relative (control = 100) |  |

| Binder | Ho/Con_1a [1] | He/Con_1a [2] |
| --- | --- | --- |
| B29 | 101 relative (control = 100) |  |
| B30 | 103 relative (control = 100) |  |
| B31 | 103 relative (control = 100) |  |
| B32 | 102 relative (control = 100) |  |
| B33 | 103 relative (control = 100) |  |
| B34 | 104 relative (control = 100) |  |
| B35 | 105 relative (control = 100) |  |
| B36 | 102 relative (control = 100) |  |
| B37 |  | 103 relative (control = 100) |
| B38 | 101 relative (control = 100) |  |
| B39 | 107 relative (control = 100) |  |
| B40 | 101 relative (control = 100) |  |
| B41 | 100 relative (control = 100) |  |
| B42 | 103 relative (control = 100) |  |
| B43 | 102 relative (control = 100) |  |
| B44 | 101 relative (control = 100) |  |
| B45 | 103 relative (control = 100) |  |
| B46 | 103 relative (control = 100) |  |
| B47 | 103 relative (control = 100) |  |
| B48 | 104 relative (control = 100) |  |
| B49 | 112 relative (control = 100) |  |
| B50 | 102 relative (control = 100) |  |
| B51 | 111 relative (control = 100) |  |
| B52 | 102 relative (control = 100) |  |
| B53 | 101 relative (control = 100) |  |
| B54 | 101 relative (control = 100) |  |
| B55 | 107 relative (control = 100) |  |
